Reference: the nanobody polyreactivity screen of Harvey et al. (2022)

Assay: yeast display, Sf9 membrane polyspecificity reagent, FACS + sequencing; frameworks hold sequencing errors
In short: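 Galactose induction of a Saccharomyces cerevisiae BJ5465 synthetic nanobody display library ran 36–48 hours. The cells were then stained for 1 hour at 4 °C with 10% biotinylated, detergent-solubilized Sf9 membrane reagent, pulled down on streptavidin microbeads and FACS-sorted into low and high (top ~1%) gates on expression and reagent-binding fluorescence. Labels for polyreactivity follow the gate of origin.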

| Sequence | polyreactivity (PSR sort gate) |
| --- | --- |
| QVQLVESGGGLVQAGGSLRLSCAASGRTFYRYAMGWYRQAPGKERELVAAISSGGSTYYADSVKGRFTISRDNAKNTVYLQMNSLKPEDTAVYYCNADYGRRNHMDYWGQGTQVTVSS | low polyreactivity |
| QVQLVESGGGLVQAGGSLRLSCAASGRTFYRYAMGWYRQAPGKERELVAAISYSGGSTYYADSVKGRFTISRDNAKNTVYLQMNSLKPEDTAVYYCNARPVKASYVGYNYWGQGTQVTVSS | high polyreactivity |
| QVQLVESGGGLVQAGGSLRLSCAASGRTFYRYAMGWYRQAPGKERELVAAITTSGGSTYYADSVKGRFTISRDNAKNTVYLQMNSLKPEDTSVYYCSATYYGYHIRDDYWGQGTQVTVSS | low polyreactivity |
| QVQLVESGGGLVQAGGSLRLSCAASGRTFYRYAMGWYRQAPGKERELVASISSGGSTDYADSVKGRFTISRDNAKNTVYLQMNSLKPEDTAVYYCNAEIVGFWTSYDYWGQGTQVTVSS | low polyreactivity |
| QVQLVESGGGLVQAGGSLRLSCAASGRTFYRYAMGWYRQAPGKERELVASITRRGGNTYYADSVKGLFTISRDNAKNTVYLQMNSLKPEDTAVYYCAAQSLHPGNWGQGTQVTVSS | high polyreactivity |
| QVQLVESGGGLVQAGGSLRLSCAASGRTFYRYAMGWYRQAPGKERELVATINWTSGSTNYADSVKGRFTISRDNAKNTVYLQMNSLKPEDTAVYYCAARGPVGYGWRYRPWHDYWGQGTQVTVSS | high polyreactivity |
| QVQLVESGGGLVQAGGSLRLSCAASGRTFYRYAMGWYRQAPGNERELVAAISYSTTRTYYADSVKGRFTISRDNAKNTVYLQMNSLKPEDTAVYYCAAYGWTRFGYDYWGQGTQVTVSS | high polyreactivity |
| QVQLVESGGGLVQAGGSLRLSCAASGRTFYSNAMGWYRQAPGKERELVAAISRRGGRTYYADSVKGRFTISRDNAKNTVYLQMNSLKPEDTAVYYCAADAYLYQPEDYYYWGQGTQVTVSS | high polyreactivity |
| QVQLVESGGGLVQAGGSLRLSCAASGRTFYSNAMGWYRQAPGKERELVAAISSSGARTYYADSVKGRFTISRDNAKNTVYLQMNSLKPEDTAVYYCNAPTQYRYYWGQGTQVTVSS | high polyreactivity |
| QVQLVESGGGLVQAGGSLRLSCAASGRTFYSNAMGWYRQAPGKERELVAAITFGGGSTYYADSVKGRFTISRDNAKNTVYLQMNSLKPEDTAVYYCAAEGYKYRFYYWGQGTQVTVSS | low polyreactivity |
| QVQLVESGGGLVQAGGSLRLSCAASGRTFYSNAMGWYRQAPGKERELVATISSSGGSTYYADSVKGRFTISRDNAKNTVYLQMNSLKPEDTAVYYCAADPSGDYWGQGTQVTVSS | low polyreactivity |
| QVQLVESGGGLVQAGGSLRLSCAASGRTFYSNAMGWYRQAPGKERELVATITLSGGSTDYADSVKGRFTISRDNAKNTVYLQMNSLKPEDTAVYYCNADTDVHLIMGYWGQGTQVTVSS | low polyreactivity |
| QVQLVESGGGLVQAGGSLRLSCAASGRTFYSNTMGWYRQSPGKERELVAAIDWSGGRTYYADSVKGRFTISRDNAKNTVYLQMHSLKPEDTAVYYCNTVGYSLRLRTGGYWGQGTQVTVSS | high polyreactivity |
| QVQLVESGGGLVQAGGSLRLSCAASGRTFYSYAKGWYRQAPGKERELVASITSTGSTYYADSVKGRFTISRDNAKNTVYLQMNSLKPEDTAVYYCAARRQPRYSQRSTYYYWGQGTQVTVSS | high polyreactivity |
| QVQLVESGGGLVQAGGSLRLSCAASGRTFYSYAMGWYRQAPGKERELVAAINSGGDTYYADSVKGRFTISRDNAKNTVYLQMNSLKPEDTAVYYCAADYYWEMDTWGQGTQVTVSS | low polyreactivity |
| QVQLVESGGGLVQAGGSLRLSCAASGRTFYSYAMGWYRQAPGKERELVAAISSGGTTYYADSVKGRFTISRDNAKNTVYLQMNSLKPEDTAVYYCATSRAWRYRSYYWGQGTQVTVSS | high polyreactivity |
| QVQLVESGGGLVQAGGSLRLSCAASGRTFYSYAMGWYRQAPGKERELVAAISWNGGSTYYADSVKGRFTISRDNAKNTVYLQMNSLKPEDTAVYYCAAVPLRNRWPNSWPALDYWGQGTQVTVSS | high polyreactivity |
